Laboratory results reported in paper PMC12559092 (2025).

Target: T1, VEGFR-2-Fc domain 1&2&3 (Homo sapiens, UniProt P35968)
T1 chain: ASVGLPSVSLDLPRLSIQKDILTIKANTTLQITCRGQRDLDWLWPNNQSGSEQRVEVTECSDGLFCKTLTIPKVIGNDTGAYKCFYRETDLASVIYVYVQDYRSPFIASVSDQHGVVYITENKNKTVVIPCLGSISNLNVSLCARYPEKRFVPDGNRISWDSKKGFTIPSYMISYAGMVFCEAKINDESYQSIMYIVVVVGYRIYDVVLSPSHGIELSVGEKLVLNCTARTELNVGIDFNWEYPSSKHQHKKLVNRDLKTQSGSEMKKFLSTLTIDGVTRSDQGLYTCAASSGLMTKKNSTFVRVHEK
Experiment: biolayer interferometry

B1: VEGF-165 (protein)
chain: MTDRQTDTAPSPSYHLLPGRRRTVDAAASRGQGPEPAPGGGVEGVGARGVALKLFVQLLGCSRFGGAVVRAGEAEPSGAARSASSGREEPQPEEGEEEEEKEEERGPQWRLGARKPGSWTGEAAVCADSAPAARAPQALARASGRGGRVARRGAEESGPPHSPSRRGSASRAGPGRASETMNFLLSWVHWSLALLLYLHHAKWSQAAPMAEGGGQNHHEVVKFMDVYQRSYCHPIETLVDIFQEYPDEIEYIFKPSCVPLMRCGGCCNDEGLECVPTEESNITMQIMRIKPHQGQHIGEMSFLQHNKCECRPKKDRARQEKKSVRGKGKGQKRKRKKSRYKSWSVPCGPCSERRKHLFVQDPQTCKCSCKNTDSRCKARQLELNERTCRCDKPRR
Kd: 0.0035 µM

B2: VEGF73-101 (peptide)
chain: Ac-ESNITMQIMRIKPHQGQHIGEMSFLQHMK-NH2
Kd: ~124 µM
